These results are taken from paper PMC4882731 (Journal of the American Chemical Society, 2016).

The target of assay [1] is ChlI, C-terminally attached to the surface via His6 tag (Synechocystis) (UniProt P51634). The assay can be described thus: single molecule force spectroscopy.
In another assay the target is ChlD R289A (Synechocystis, UniProt P72772 1-676, R289A). Put plainly: MST.
The target in a further assay is ChlD R208A (Synechocystis, UniProt P72772 1-676, R208A). Put plainly: MST.
Another assay addresses ChlD wild-type (Synechocystis, UniProt P72772 1-676). The assay can be described thus: MST.

Chain of ChlD R208A (P72772 whole entry R208A): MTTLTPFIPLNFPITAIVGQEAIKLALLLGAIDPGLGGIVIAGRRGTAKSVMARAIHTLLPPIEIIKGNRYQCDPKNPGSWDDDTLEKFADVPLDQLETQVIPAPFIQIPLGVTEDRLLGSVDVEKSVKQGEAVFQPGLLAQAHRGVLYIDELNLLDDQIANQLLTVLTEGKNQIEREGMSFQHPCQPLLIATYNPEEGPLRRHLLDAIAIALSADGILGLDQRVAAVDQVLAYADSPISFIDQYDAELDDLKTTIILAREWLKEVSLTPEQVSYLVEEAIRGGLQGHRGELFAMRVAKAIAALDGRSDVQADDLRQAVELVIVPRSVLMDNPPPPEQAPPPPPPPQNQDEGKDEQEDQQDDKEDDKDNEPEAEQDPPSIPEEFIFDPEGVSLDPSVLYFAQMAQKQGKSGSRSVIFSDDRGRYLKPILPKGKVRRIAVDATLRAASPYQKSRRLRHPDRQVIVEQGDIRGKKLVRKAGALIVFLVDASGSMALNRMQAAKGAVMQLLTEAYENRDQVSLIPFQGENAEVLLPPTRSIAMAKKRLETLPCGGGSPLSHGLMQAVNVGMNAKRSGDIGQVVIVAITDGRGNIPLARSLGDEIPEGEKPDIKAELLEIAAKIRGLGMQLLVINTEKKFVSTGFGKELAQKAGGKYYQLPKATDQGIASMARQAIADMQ
Chain of ChlD wild-type (P72772 whole entry): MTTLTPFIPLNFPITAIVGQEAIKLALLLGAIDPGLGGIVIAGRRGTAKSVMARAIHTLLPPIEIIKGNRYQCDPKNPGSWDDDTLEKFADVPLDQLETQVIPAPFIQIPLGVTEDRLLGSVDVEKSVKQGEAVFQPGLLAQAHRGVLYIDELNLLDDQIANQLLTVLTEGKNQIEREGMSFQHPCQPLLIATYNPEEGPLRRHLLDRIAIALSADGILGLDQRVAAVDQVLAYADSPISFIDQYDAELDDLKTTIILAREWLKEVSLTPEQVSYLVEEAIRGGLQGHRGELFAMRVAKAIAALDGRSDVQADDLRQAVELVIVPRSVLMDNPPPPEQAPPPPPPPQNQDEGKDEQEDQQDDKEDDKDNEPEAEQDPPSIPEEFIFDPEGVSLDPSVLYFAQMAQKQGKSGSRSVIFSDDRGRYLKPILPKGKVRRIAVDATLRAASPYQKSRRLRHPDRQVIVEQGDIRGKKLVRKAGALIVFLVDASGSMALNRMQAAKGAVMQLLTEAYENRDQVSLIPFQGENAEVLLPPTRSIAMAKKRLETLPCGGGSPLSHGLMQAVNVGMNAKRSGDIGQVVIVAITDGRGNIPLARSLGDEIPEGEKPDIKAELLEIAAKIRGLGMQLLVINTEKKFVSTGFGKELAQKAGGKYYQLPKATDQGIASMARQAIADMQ
Chain of ChlD R289A (P72772 whole entry R289A): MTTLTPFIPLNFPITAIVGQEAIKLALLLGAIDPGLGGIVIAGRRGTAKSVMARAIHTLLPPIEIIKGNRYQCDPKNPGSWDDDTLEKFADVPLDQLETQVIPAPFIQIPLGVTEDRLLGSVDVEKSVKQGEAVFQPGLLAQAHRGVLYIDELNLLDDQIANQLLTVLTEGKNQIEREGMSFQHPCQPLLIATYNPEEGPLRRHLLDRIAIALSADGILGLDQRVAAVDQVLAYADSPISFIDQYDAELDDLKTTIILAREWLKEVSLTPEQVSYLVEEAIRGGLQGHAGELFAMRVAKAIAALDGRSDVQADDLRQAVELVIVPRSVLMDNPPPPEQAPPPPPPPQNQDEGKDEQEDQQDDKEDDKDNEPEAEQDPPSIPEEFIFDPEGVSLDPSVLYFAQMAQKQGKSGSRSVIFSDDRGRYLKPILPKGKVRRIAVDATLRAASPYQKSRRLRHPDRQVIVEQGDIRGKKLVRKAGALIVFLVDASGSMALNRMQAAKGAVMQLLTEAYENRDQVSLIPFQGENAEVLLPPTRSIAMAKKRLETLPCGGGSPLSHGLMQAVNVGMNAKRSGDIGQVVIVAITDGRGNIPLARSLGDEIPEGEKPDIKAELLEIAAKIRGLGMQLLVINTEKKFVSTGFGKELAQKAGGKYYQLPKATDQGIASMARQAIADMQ

In assay [1], “ChlD tagged at the C-terminus with a His6 sequence (from UniProt P72772 1-676) (natural protein)” gave an interaction probability of 30.5%, a modal interaction force of 108 pN and a rupture force of 109 pN.

B1: ChlI C244S Alexa Fluor 488 (natural protein, Synechocystis, UniProt P51634 1-357, looked up)
chain: MTATLAAPSKTRRVVFPFTAIVGQDEMKLALLLNVIDPKIGGVMIMGDRGTGKSTTIRALADLLPEIEVVANDPFNSSPSDPEMMSEEVRIRVDSQEPLSIVKKKVTMVDLPLGATEDRVCGTIDIEKALSEGVKAFEPGLLAKANRGILYVDEVNLLDDHLVDVLLDSAAGGWNTVEREGISIRHPARFVLVGSGNPEEGELRPQLLDRFGMHAEIRTVREPELRVKIVEQRTEFDQNPHPFSDQYQTEQEALQAKIVNAQNLLPQVTIDYDYRVKVSEVCAELDVDGLRGDIVTNRAAKALAAFEGRTEVTVDDISRVIVLCLRHRLRKDPLESIDSGSKVEKVFKRVFGVVDEA
modifications: Alexa Fluor 488 C5 maleimide label (labelled residue not stated)
On to B1, for which the Kd (in general, a measure of binding affinity in units of concentration) in the assay with ChlD R289A was found to be 2540 ± 219 nM; with ChlD R208A it was 328 ± 67.7 nM; with ChlD wild-type it was 7.6 ± 0.8 nM.
